Results from US20140120095A1 (Boehringer Ingelheim, published 2014).
Where two headings read alike, the source gives them in different places.

Experiments:
recombinant human DLL4 [1] = molecular target: T1, recombinant human DLL4 (human, UniProt Q9NR61 25-522); test: Biacore off-rate, periplasmic extract; heterogeneous fit, slow off-rate
T1 construct: also called rhDLL4; hDLL4

recombinant human DLL4 [2] = molecular target: T1, recombinant human DLL4; test: AlphaScreen biot-hDLL4/hNotch1-Fc, periplasmic extract
recombinant human DLL4 [3] = molecular target: T1, recombinant human DLL4; test: hDLL4 ELISA screen, periplasmic extract
recombinant human DLL4 [4] = molecular target: T1, recombinant human DLL4; test: Biacore off-rate, periplasmic extract; heterogeneous fit, fast off-rate
human Jagged-1 = molecular target: T2, human Jagged-1 (human, UniProt P78504 34-1067, limits assumed); test: binding ELISA on coated recombinant human Jagged-1, OD 405 nm
T2 construct: also called hJagged-1; hJAG1
Method in brief: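 Plates coated overnight at 4° C with 1 μg/mL ligand, blocked with 1% casein in PBS. VHH dilution series applied; bound VHH detected via mouse anti-myc then anti-mouse-AP conjugate.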

recombinant mouse DLL4 = molecular target: T3, recombinant mouse DLL4 (mouse, UniProt Q9JI71 27-532); test: binding ELISA on coated recombinant mouse DLL4, OD 405 nm
T3 construct: extracellular domain; also called rmDLL4; mDLL4
T3 sequence (Q9JI71 27-532): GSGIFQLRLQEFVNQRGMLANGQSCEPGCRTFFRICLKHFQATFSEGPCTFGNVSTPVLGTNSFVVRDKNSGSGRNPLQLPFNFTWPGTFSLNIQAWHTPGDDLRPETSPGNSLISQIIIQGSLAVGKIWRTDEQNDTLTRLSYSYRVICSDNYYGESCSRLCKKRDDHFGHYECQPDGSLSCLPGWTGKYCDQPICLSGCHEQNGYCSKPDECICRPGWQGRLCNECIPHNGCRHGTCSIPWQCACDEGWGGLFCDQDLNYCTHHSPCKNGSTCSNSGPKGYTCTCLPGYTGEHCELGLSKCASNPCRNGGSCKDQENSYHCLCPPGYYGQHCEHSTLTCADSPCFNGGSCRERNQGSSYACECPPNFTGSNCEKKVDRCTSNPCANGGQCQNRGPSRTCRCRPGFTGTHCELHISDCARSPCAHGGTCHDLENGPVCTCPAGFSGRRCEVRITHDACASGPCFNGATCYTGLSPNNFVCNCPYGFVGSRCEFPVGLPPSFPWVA
Description: (§1) In order to determine cross-reactivity to mouse DII4 a binding ELISA is performed. […] Wells are blocked with a casein solution (1% in PBS). VHHs are applied as dilution series and binding is detected using a mouse anti-myc (Roche) and an anti-mouse-AP conjugate (Sigma, St Louis, Mo., USA) (FIG. 7 A-H). As reference, binding to human DII4 is measured.

recombinant human DLL4 [5] = molecular target: T1, recombinant human DLL4; test: competition AlphaScreen, biot-hDLL4/hNotch1-Fc; partial inhibitor
human DLL1 = molecular target: T4, human DLL1 (human, UniProt O00548 18-545, limits assumed); test: binding ELISA on coated recombinant human DLL1, OD 405 nm
T4 construct: also called hDLL1
T4 sequence (looked up): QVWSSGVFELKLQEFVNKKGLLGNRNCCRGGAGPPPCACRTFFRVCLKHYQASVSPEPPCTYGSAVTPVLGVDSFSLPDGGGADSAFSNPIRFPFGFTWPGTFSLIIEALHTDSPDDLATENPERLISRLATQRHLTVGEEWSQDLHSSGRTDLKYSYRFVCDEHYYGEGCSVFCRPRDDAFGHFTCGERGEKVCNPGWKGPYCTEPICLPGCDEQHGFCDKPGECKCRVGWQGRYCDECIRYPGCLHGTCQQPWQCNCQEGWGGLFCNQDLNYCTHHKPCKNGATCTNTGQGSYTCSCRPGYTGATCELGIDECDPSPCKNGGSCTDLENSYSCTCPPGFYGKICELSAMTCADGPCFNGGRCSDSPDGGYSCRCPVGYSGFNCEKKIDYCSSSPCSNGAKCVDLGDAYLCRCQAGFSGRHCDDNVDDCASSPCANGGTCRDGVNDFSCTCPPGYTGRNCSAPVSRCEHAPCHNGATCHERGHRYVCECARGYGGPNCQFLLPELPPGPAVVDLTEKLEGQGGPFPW
Description: Absence of binding to homologous ligands human DLL1 and human Jagged-1 is assessed via solid phase binding assay (ELISA). In brief, human DLL1 (Alexis, San Diego, Calif., USA) and human Jagged-1 (Alexis, San Diego, Calif., USA) are coated overnight at 4° C. at 1 μg/mL in a 96-well MaxiSorp plate (Nunc, Wiesbaden, Germany). Wells are blocked with a casein solution (1% in PBS). VHHs are applied as dilution series and binding is detected using a mouse anti-myc (Roche) and an anti-mouse-AP conjugate (Sigma, St. Louis, Mo., USA).

recombinant human DLL4 [6] = molecular target: T1, recombinant human DLL4; test: binding ELISA, coated rhDLL4
Description: as §1

[7] = molecular target: T5, VEGF (used to stimulate HUVEC cells) (UniProt P15692-4 27-191, limits assumed); test: cell-based or functional assay
Target sequence in this assay (P15692 other isoform, or with tags, fused parts or gaps limits assumed): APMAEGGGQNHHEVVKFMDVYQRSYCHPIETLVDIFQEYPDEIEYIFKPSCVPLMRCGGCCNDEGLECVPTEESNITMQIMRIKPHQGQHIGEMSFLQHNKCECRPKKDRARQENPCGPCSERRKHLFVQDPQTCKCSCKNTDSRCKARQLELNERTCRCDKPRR

[8] = molecular target: T6, recombinant mouse VEGF164 (mouse, UniProt Q00731-2 27-190, biotinylated as the labelled ligand of the mVEGF164/mVEGFR2 AlphaScreen); test: binding ELISA, coated rmVEGF164
T6 construct: also called mVEGF164; rmVEGF164
T6 sequence (looked up): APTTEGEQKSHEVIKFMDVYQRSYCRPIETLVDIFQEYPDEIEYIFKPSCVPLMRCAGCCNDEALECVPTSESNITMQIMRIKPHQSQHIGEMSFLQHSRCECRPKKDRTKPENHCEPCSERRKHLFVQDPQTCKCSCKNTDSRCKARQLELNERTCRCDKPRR
Description: Cross-reactivity to mouse VEGF164 is determined using a binding ELISA. […] Wells are blocked with a casein solution (1% in PBS). […] A mouse VEGF164 reactive mAb is included as positive control.

[9] = molecular target: T7, recombinant human VEGF165 (human, UniProt P15692-4 27-191, biotinylated in the competition assays); test: ELISA, hVEGF165/hVEGFR1-Fc competition; set-up: % inhibition: concentration or dose not given beside the values
T7 construct: Bought protein; also called hVEGF165; rhVEGF165
Target sequence in this assay (P15692 other isoform, or with tags, fused parts or gaps): as the sequence (P15692 other isoform, or with tags, fused parts or gaps limits assumed) above

[10] = molecular target: T5, VEGF (used to stimulate HUVEC cells); test: cell-based or functional assay; remark: listed apart in the source
Target sequence in this assay (P15692 other isoform, or with tags, fused parts or gaps limits assumed): as the sequence (P15692 other isoform, or with tags, fused parts or gaps limits assumed) above

[11] = molecular target: T7, recombinant human VEGF165; test: AlphaScreen, hVEGF165/hVEGFR2-Fc competition; set-up: % inhibition: concentration or dose not given beside the values
Description: (§2) Finally, streptavidin donor beads (20 μg/ml) are added and after 1 hour of incubation in the dark, fluorescence is measured on the Envision microplate reader.

[12] = molecular target: T7, recombinant human VEGF165; test: binding ELISA, coated rhVEGF165
Target sequence in this assay (P15692 other isoform, or with tags, fused parts or gaps): as the sequence (P15692 other isoform, or with tags, fused parts or gaps limits assumed) above

[13] = molecular target: T7, recombinant human VEGF165; test: AlphaScreen, hVEGF165/hVEGFR1-Fc competition; set-up: % inhibition: concentration or dose not given beside the values
Description: as §2
Target sequence in this assay (P15692 other isoform, or with tags, fused parts or gaps): as the sequence (P15692 other isoform, or with tags, fused parts or gaps limits assumed) above

[14] = molecular target: T7, recombinant human VEGF165; test: AlphaScreen, hVEGF165/hVEGFR1-Fc competition
Description: as §2
Target sequence in this assay (P15692 other isoform, or with tags, fused parts or gaps): as the sequence (P15692 other isoform, or with tags, fused parts or gaps limits assumed) above

[15] = molecular target: T7, recombinant human VEGF165; test: AlphaScreen, hVEGF165/hVEGFR2-Fc competition
Description: as §2
Target sequence in this assay (P15692 other isoform, or with tags, fused parts or gaps): as the sequence (P15692 other isoform, or with tags, fused parts or gaps limits assumed) above

[16] = molecular target: T7, recombinant human VEGF165; test: ELISA, hVEGF165/hVEGFR2-Fc competition; set-up: % inhibition: concentration or dose not given beside the values
[17] = molecular target: T7, recombinant human VEGF165; test: SPR Biacore, immobilised hVEGF165, two state reaction model
Description: (§3) Samples are injected for 2 min and allowed to dissociate up to 20 min at a flow rate of 45 μl/min. In between sample injections, the chip surface is regenerated with 100 mM HCl. HBS-EP+(Hepes buffer pH7.4+EDTA) is used as running buffer. Binding curves are fitted using a Two State Reaction model by Biacore T100 Evaluation Software v2.0.1.
^{(a)}KD = kd1/kₐ₁ * (kd2/(kd2 + kₐ₂)) ^{(b)}Curves are fitted using a Two State Reaction model by Biacore T100 Evaluation Software v2.0.1
Target sequence in this assay (P15692 other isoform, or with tags, fused parts or gaps): as the sequence (P15692 other isoform, or with tags, fused parts or gaps limits assumed) above

[18] = molecular target: T7, recombinant human VEGF165; test: SPR Biacore, hVEGF165
Description: as §3

[19] = molecular target: T5, VEGF (used to stimulate HUVEC cells); test: cell-based or functional assay; remark: listed apart in the source
[20] = molecular target: T7, recombinant human VEGF165; test: SPR Biacore, VEGF165
[21] = molecular target: T7, recombinant human VEGF165; test: AlphaScreen, hVEGF165/hVEGFR2-Fc competition, -HSA
[22] = molecular target: T7, recombinant human VEGF165; test: AlphaScreen, hVEGF165/hVEGFR1-Fc competition, -HSA
[23] = molecular target: T7, recombinant human VEGF165; test: AlphaScreen, hVEGF165/hVEGFR2-Fc competition, +5 uM HSA
[24] = molecular target: T7, recombinant human VEGF165; test: AlphaScreen, hVEGF165/hVEGFR2-Fc competition; remark: listed apart in the source

T1 sequence (Q9NR61 25-522): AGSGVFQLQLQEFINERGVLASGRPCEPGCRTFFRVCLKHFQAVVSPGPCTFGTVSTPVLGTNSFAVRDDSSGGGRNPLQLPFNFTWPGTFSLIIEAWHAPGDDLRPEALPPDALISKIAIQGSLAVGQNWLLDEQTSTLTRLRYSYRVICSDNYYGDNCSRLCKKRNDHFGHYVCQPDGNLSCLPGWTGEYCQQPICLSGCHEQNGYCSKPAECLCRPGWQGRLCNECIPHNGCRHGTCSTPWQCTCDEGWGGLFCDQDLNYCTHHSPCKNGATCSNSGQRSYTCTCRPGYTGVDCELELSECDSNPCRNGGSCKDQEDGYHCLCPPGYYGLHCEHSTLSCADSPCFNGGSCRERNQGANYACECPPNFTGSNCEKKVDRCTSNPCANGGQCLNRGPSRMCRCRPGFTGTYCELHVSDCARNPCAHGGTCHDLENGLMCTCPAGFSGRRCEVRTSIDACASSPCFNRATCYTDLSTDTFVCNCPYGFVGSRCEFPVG

B1: DLLBII17B03 (VHH)
VHH: EVQLVESGGGLVQPGGSLRLSCAASGFTFENYALGWFRQAPGKEREWVSCISSSDGTTYYADSVKGRFTISRDNVKNTVYLQMNRLKPEDTAIYYCALSLGSSWCAYDYWGQGTQVTVSS
koff (recombinant human DLL4 [1]): 0.00022 s⁻¹ | % inh (recombinant human DLL4 [2]): 77% | % inh (recombinant human DLL4 [3]): 76% | koff (recombinant human DLL4 [4]): 0.0012 s⁻¹

B2: DLLBII08C11 (VHH)
VHH: EVQLVESGGGLVQAGGSLRLSCAASGFTFDDYAIGWFRQAPGKEREGVSCISSHDRTTYYADSVKGRFTISSDNAKNTVYLQMNSLKPEDTAVYYCAADPLVCGYNDPRLADYWGQGTQVTVSS
notes: also called DLLBII8C11
binding result (human Jagged-1): no binding (tested: 2.5e-7 M) | binding result (recombinant mouse DLL4): no binding (tested: 2.5e-7 M) | IC50 (recombinant human DLL4 [5]): 0.7 nM | binding result (human DLL1): no binding (tested: 2.5e-7 M) | EC50 (recombinant human DLL4 [6]): 1.1 nM | % inh (recombinant human DLL4 [3]): 57%

B3: VEGFBII021 (VHH, not shown: small tags and cut ends)
chain: EVQLVESGGGLVQTGDSLRLSCEVSGRTFSSYSMGWFRQAQGKEREFVVAISKGGYKYDSVSLEGRFTISKDNAKNTVYLQINSLKPEDTAVYYCASSRAYGSSRLRLADTYEYWGQGTQVTVSSGGGGSGGGGSGGGGSGGGGSGGGGSGGGGSGGGGSGGGGSEVQLVESGGGLVQPGGSLRLSCVASGIRFMSMAWYRQAPGKHRELVARISSGGTTAYVDSVKGRFTISRDNSKNTVYLQMNSLKAEDTAVYYCNTFSSRPNPWGAGTQVTVSS
notes: Bivalent (heterodimeric) anti-VEGF VHH; also called VEGFBII23B04-40GS-5B05
% inhibition, VEGF HUVEC Erk phosphorylation assay [7]: 103% | IC50, VEGF HUVEC Erk phosphorylation assay [7]: 0.21 nM | EC50 [8]: 0.502 nM | % inhibition [9]: 97% | IC50 [9]: 0.254 nM | % inhibition, VEGF HUVEC proliferation assay [10]: 98% | IC50, VEGF HUVEC proliferation assay [10]: 0.4 nM | % inhibition [11]: 100% | IC50 [11]: 0.007 nM | EC50 [12]: 0.334 nM | % inhibition [13]: 100% | IC50 [13]: 0.012 nM | % inhibition [14]: 100% | IC50 [14]: 0.016 nM | IC50 [15]: 0.009 nM | % inhibition [16]: 100% | IC50 [16]: 0.204 nM | Kd [17]: 0.07 nM | ka1 [17]: 1.2e+06 M⁻¹ s⁻¹ | ka2 [17]: 0.023 s⁻¹ | kd1 [17]: 0.011 s⁻¹ | kd2 [17]: 0.00019 s⁻¹

B4: DLLBII17F10 (VHH)
VHH: EVQLVESGGGLVQAGGSLRLSCASSGRTLLNYAMGWFRQAPGKEREFVSGINWSGGSTYYADSVKGRFTISRDNAENTVYLHMNSLKPEDTAVYYCAAAHDNYWFTDDSLGRGLKYWGQGTQVTVSS
koff (recombinant human DLL4 [1]): 0.00031 s⁻¹ | % inh (recombinant human DLL4 [2]): 88% | EC50 (recombinant human DLL4 [6]): 0.9 nM | % inh (recombinant human DLL4 [3]): 98% | koff (recombinant human DLL4 [4]): 0.0011 s⁻¹

B5: VEGFBII032 (VHH)
VHH: EVQLVESGGGLVQPGGSLRLSCAASGIRFISMAWYRQAPGKQRELVARISSGGTTAYADSVKGRFTISRDNSKNTVYLQMNSLRAEDTAVYYCNTFSSRPNPWGQGTLVTVSS
notes: also called VEGFBII0032
Kd [18]: 44 nM

B6: VEGFBII038 (VHH)
VHH: DVQLVESGGGLVQPGGSLRLSCAASGRTFSSYSMGWFRQAPGKEREFVVAISKGGYKYDAVSLEGRFTISRDNAKNTVYLQINSLRPEDTAVYYCASSRAYGSSRLRLADTYEYWGQGTLVTVSS
notes: also called VEGFBII0038
% inhibition, VEGF HUVEC proliferation assay [19]: 92% | IC50, VEGF HUVEC proliferation assay [19]: 0.6 nM | Kd [20]: 0.36 nM | % inh [21]: 100% | IC50 [21]: 0.2 nM | % inh [22]: 50% | IC50 [22]: 0.2 nM | IC50 [23]: 0.1 nM | % inhibition [24]: 100% | IC50 [24]: 0.143 nM
